Experimental data published in patent publication US7211422B2, “Polypeptide having α-isomaltosylglucosaccharide synthase activity” (Kabushiki Kaisha Hayashibara Seibutsu Kagaku Kenkyujo, priority 2001, dated 2007).

Assays:
[1] = Test on reducing-power formation; type: biochemical; conditions: 1% (w/v) maltotetraose, 0.25 unit/g substrate, 35° C., pH 6.0 (pH 8.4 for A19)
Experimental: The following test was carried out to study whether the polypeptide having α-isomaltosylglucosaccharide-forming enzyme activity had the ability of forming reducing-power or not. To a 1% (w/v) aqueous solution of maltotetraose as a substrate was added 0.25 unit/g substrate, d.s.b., of either of purified polypeptide specimen of α-isomaltosylglucosaccharide-forming enzyme from Bacillus globisporus C11 obtained by the method in Experiment 1-3, Bacillus globisporus N75 obtained by the method in Experiment2-3, or Arthrobacter globiformis A19 obtained by the method in Experiment 3-3, and incubated at 35° C. and at pH 6.0, except that pH 8.4 was used for the enzyme from Arthrobacter globiformis A19. During the reaction, a portion of each reaction mixture was sampled at prescribed time intervals and measured for reducing power after keeping at 100° C. for 10 minutes to stop the enzymatic reaction. Before and after the enzymatic reaction, the reducing sugar content and total sugar content were respectively quantified by the Somogyi-Nelson method and anthrone-sulfuric acid method. The percentage of forming reducing power was calculated by the following equation: Percentage of forming reducing power (%)=(AR/AT−BR/BT)×100 Equation: • AR: Reducing sugar content after enzymatic reaction. • AT: Total sugar content after enzymatic reaction. • BR: Reducing sugar content before enzymatic reaction. • BT: Total sugar content before enzymatic reaction.

[2] = Thermal stability and pH stability (residual enzyme activity); type: physicochemical; conditions: in the absence of Ca2+, 20 mM acetate buffer pH 6.0, 60 minutes
Experimental: The thermal stability of the polypeptide having α-isomaltosylglucosaccharide-forming enzyme activity was determined by incubating the testing polypeptide solution in 20 mM acetate buffer, pH6.0 (in the case of the polypeptide from a strain A19, 20 m M Glycine-NaOH buffer, pH 8.0) at prescribed temperatures for 60 minutes in the presence or absence of 1 mM Ca^2+, cooling with water the resulting polypeptide solutions, and assaying the residual enzyme activity of each solution. The pH stability of the polypeptide having α-isomaltosylglucosaccharide-forming enzyme activity was determined by keeping the testing polypeptide solutions in 50 mM buffer having prescribed pHs at 4° C. for 24 hours, adjusting the pH of each solution to 6.0 (in the case of the polypeptide from a strain A19, pH 8.0), and assaying the residual enzyme activity of each solution. […] The thermal stability of the polypeptide having α-isomaltosylglucosaccharide-forming enzyme activity from a strain C11 was up to about 40° C. (in the absence of Ca^2+) and about 45° C. (in the presence of Ca^2+), and pH stability of about 5.0 to about 10.0. The thermal stability of the polypeptide having α-isomaltosylglucosaccharide-forming enzyme activity from a strain N75 was up to about 45° C. (in the absence of Ca^2+) and about 50° C. (in the presence of Ca^2+), and pH stability of about 5.0 to about 9.0. The thermal stability of the polypeptide having α-isomaltosylglucosaccharide-forming enzyme activity from a strain A19 was up to about 55° C. (in the absence of Ca^2+) and about 60° C. (in the presence of Ca^2+), and pH stability of about 5.0 to about 9.0.

[3] = Effect of temperature and pH on α-isomaltosylglucosaccharide-forming enzyme activity; type: biochemical; conditions: for Optimum temperature: pH 6.0 for 60 minutes
Experimental: The two types of enzymatic activities described above were measured as following. The activity of α-isomaltosylglucosaccharide-forming enzyme was measured by the following assay: A substrate solution was prepared by dissolving maltotriose in 100 mM acetate buffer (pH 6.0) to give a concentration of 2% (w/v). A reaction mixture was prepared by mixing 0.5 ml of the substrate solution and 0.5 ml of an enzyme solution, and incubated at 35° C. for 60 minutes. After stopping the reaction by boiling for 10 minutes, the amount of maltose formed in the reaction mixture was determined by high-performance liquid chromatography (HPLC). One unit of α-isomaltosylglucosaccharide-forming activity was defined as the amount of the enzyme that forms one μmole of maltose per minute under the above conditions. HPLC was carried out using “SHODEX KS-801 column”, Showa Denko K. K., Tokyo, Japan, at a column temperature of 60° C. and a flow rate of 0.5 ml/minutes of water, and using “RI-8012”, a differential refractometer commercialized by Tosoh Corporation, Tokyo, Japan.
The effect of temperature and pH on the α-isomaltosylglucosaccharide-forming enzyme activity was examined in accordance with the assay for the α-isomaltosylglucosaccharide-forming enzyme activity under various temperature and pH conditions. The effect of temperature was conducted in the presence or absence of 1 mM Ca^2+. […] The optimum temperature of the polypeptide having α-isomaltosylglucosaccharide-forming enzyme activity from a strain C11 was about 45° C. (in the absence of Ca^2+) and about 50° C. (in the presence of Ca^2+) when incubated at pH 6.0 for 60 minutes, and the optimum pH was about 6.0 when incubated at 35° C. for 60 minutes. The optimum temperature of the polypeptide having α-isomaltosylglucosaccharide-forming enzyme activity from a strain N75 was about 50° C. (in the absence of Ca^2+) and about 55° C. (in the presence of Ca^2+) when incubated at pH 6.0 for 60 minutes, and the optimum pH was about 6.0 when incubated at 35° C. for 60 minutes. The optimum temperature of the polypeptide having α-isomaltosylglucosaccharide-forming enzyme activity from a strain A19 was about 60° C. (in the absence of Ca^2+) and about 65° C. (in the presence of Ca^2+) when incubated at pH 8.4 for 60 min, and the optimum pH was about 8.4 when incubated at 35° C. for 60 minutes.

[4] = Isoelectric point by isoelectrophoresis (2% ampholine gel); type: physicochemical; conditions: gel containing 2% (w/v) ampholine
Text: Purified specimens of the polypeptide having α-isomaltosylglucosaccharide-forming enzyme activity from Bacillus globisporus C11 obtained by the method in Experiment 1-3, Bacillus globisporus N75 obtained by the method in Experiment 2–3, and Arthrobacter globiformis A19 obtained by the method in Experiment 3-3 were subjected to isoelectrophoresis using a gel containing 2% (w/v) ampholine commercialized by Amersham Biosciences K. K., Tokyo, Japan (old name, Amersham Pharmacia Biotech), and then measured pHs of protein bands and gel to determine their isoelectric points.

B1: Enzyme of Strain C11: purified polypeptide having α-isomaltosylglucosaccharide-forming enzyme activity from Bacillus globisporus C11 (Experiment 1-3); contains SEQ ID NO: 1 (protein)
chain: YVSSLGNLISSSVTGDTLTLTVDNGAEPSDDLLIVQAVQNGILKVDYRPNSITPSAKTPMLDPNKTWSAVGATINTTANPMTITTSNMKIEITKNPVRMTVKKADGTTLFWEPSGGGVFSDGVRFLHATGDNMYGIRSFNAFDSGGDLLRNSSNHAAHAGEQGDSGGPLIWSTAGYGLLVDSDGGYPYTDSTTGQMEFYYGGTPPEGRRYAKQNVEYYIMLGTPKEIMTDVGEITGKPPMLPKWSLGFMNFEWDTNQTEFTNNVDTYRAKNIPIDAYAFDYDWKKYGETNYGEFAWNTTNFPSASTTSLKSTMDAKGIKMIGITKPRIVTKDASANVTTQGTDATNGGYFYPGHNEYQDYFIPVTVRSIDPYNANERAWFWNHSTDALNKGIVGWWNDETDKVSSGGALYWFGNFTTGHMSQTMYEGGRAYTSGAQRVWQTARTFYPGAQRYATTLWSGDIGIQYNKGERINWAAGMQEQRAVMLSSVNNGQVKWGMDTGGFNQQDGTTNNPNPDLYARWMQFSALTPVFRVHGNNHQQRQPWYFGSTAEEASKEAIQLRYSLIPYMYAYERSAYENGNGLVRPLMQAYPTDAAVKNYTDAWMFGDWLLAAPVVDKQQTSKDIYLPSGSWIDYARGNAITGGQTIRYSVNPDTLTDMPLFIKKGAIIPTQKVQDYVGQASVTSVDVDVFPDTTQSSFTYYDDDGASYNYESGTYFKQNMTAQDNGSGSLSFTLGAKSGSYTPALQSYIVKLHGSAGTSVTNNSAAMTSYASLEALKAAAGEGWATGKDIYGDVTYVKVTAGTASSKSIAVTGVAAVSATTSQYEAEDASLSGNSVAAKASINTNHTGYTGTGFVDGLGNDGAGVTFYPKVKTGGDYNVSLRYANASGTAKSVSIFVNGKRVKSTSLANLANWDTWSTQSETLPLTAGVNVVTYKYYSDAGDTGNVNIDNITVPFAPIIGKYEAESAELSGGSSLNTNHWYYSGTAFVDGLSAVGAQVKYNVNVPSAGSYQVALRYANGSAATKTLSTYINGAKLGQTSFTSPGTNWNVWQDNVQTVTLNAGANTIAFKYDAADSGNINVDRLLLSTSAAGTPVSEQNLLDNPGFERDTSQTNNWIEWHPGTQAVAFGVDSGSTTNPPESPWSGDKRAYFFAAGAYQQSIHQTISVPVNNVKYKFEAWVRMKNTTPTTARAEIQNYGGSAIYANISNSGVWKYISVSDIMVTNGQIDVGFYVDSPGGTTLHIDDVRVTKQ
modifications: Bacillus globisporus C11
- Percentage of forming reducing power ([1]; reaction time 0 hour): 0.0%
- Percentage of forming reducing power ([1]; reaction time 1 hour): 0.1%
- Percentage of forming reducing power ([1]; reaction time 2 hours): 0.0%
- Percentage of forming reducing power ([1]; reaction time 4 hours): 0.1%
- Percentage of forming reducing power ([1]; reaction time 8 hours): 0.0%
- Thermal stability [2]: up to 40 °C
- Optimum temperature ([3]; in the absence of Ca2+): about 45 °C
- Optimum temperature ([3]; in the presence of 1 mM Ca2+): about 50 °C
- Optimum pH ([3]; incubated at 35° C. for 60 minutes): about 6.0
- Isoelectric point [4]: about 5.2±0.5
